Laboratory results taken from patent US20140223606, “COMPOSITIONS AND METHODS COMPRISING SEQUENCES HAVING MEGANUCLEASE ACTIVITY” (PIONEER HI BRED INTERNATIONAL INC, published 2014).

How the values were obtained:
Test in all cases: cell_activity; maize
Details in all cases: tags: SV40 NLS
MHP77.3(L9-02) = target: T1, MHP77.3(L9-02) (artificial)
T1 chain: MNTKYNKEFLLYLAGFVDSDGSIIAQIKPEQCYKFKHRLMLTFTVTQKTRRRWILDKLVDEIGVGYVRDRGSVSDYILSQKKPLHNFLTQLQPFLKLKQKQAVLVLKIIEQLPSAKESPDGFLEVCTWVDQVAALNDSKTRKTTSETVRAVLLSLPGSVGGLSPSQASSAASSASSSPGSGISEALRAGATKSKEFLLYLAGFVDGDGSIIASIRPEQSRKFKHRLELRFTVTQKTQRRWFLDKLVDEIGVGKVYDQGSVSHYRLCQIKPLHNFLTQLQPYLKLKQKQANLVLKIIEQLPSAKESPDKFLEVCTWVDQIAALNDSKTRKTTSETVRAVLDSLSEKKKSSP

MHP77.3 = target: T2, MHP77.3 (artificial)
T2 chain: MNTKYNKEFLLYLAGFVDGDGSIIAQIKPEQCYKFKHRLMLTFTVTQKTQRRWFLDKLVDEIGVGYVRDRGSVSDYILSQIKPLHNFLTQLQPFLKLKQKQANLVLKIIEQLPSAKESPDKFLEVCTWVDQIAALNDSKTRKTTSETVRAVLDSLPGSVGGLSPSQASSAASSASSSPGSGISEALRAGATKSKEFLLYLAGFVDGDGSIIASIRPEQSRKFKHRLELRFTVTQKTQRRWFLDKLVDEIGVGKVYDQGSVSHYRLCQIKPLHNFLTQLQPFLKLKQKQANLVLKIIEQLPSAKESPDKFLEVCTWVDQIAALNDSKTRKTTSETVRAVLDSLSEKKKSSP

MHP77.3(L9-11) = target: T3, MHP77.3(L9-11) (artificial)
T3 chain: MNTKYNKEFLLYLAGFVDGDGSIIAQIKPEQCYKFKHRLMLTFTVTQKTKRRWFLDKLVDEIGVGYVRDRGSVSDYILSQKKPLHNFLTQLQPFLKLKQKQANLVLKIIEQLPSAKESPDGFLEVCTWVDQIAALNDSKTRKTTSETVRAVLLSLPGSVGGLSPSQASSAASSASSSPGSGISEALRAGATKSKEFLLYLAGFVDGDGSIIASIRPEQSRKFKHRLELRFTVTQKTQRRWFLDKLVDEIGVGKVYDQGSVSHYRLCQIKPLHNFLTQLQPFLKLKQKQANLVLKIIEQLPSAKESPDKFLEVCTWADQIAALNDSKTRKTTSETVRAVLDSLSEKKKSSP

MHP77.3(L9-12) = target: T4, MHP77.3(L9-12) (artificial)
T4 chain: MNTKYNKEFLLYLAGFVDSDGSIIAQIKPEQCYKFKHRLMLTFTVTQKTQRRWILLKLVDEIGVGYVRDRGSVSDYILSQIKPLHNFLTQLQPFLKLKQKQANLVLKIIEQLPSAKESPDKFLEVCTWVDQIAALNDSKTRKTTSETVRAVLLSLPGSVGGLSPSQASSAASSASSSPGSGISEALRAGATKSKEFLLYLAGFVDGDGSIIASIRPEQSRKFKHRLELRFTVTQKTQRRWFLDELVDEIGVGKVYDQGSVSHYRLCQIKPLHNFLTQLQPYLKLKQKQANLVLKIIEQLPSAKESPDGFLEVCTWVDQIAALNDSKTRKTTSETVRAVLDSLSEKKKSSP

MHP77.3(15) = target: T5, MHP77.3(15) (artificial)
T5 chain: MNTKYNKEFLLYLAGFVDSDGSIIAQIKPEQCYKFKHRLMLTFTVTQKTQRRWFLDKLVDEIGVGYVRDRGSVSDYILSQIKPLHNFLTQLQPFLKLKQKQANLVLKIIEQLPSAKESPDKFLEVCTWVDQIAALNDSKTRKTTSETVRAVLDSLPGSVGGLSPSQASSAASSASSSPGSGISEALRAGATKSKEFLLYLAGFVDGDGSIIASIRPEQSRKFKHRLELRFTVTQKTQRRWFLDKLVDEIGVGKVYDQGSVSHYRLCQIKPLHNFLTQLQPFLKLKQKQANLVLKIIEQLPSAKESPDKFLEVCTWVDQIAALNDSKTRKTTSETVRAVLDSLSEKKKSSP

B1: MHP77 recognition site (dsDNA)
DNA 1: GGGCGGTATGTATGTCATACTA
DNA 2: TAGTATGACATACATACCGCCC
- activity (MHP77.3(L9-02)): 5 % target site mutation rate
- activity (MHP77.3): 11 % target site mutation rate
- activity (MHP77.3(L9-11)): 35 % target site mutation rate
- activity (MHP77.3(L9-12)): 19 % target site mutation rate
- activity (MHP77.3(15)): 22 % target site mutation rate
